The values that follow come from publication PMC7474679 (Proceedings of the National Academy of Sciences of the …, 2020).

No end group written: not given here. *: point of attachment. FITC = O=C1OC2(c3ccc(O)cc3Oc3cc(O)ccc32)c2ccc(NC(=S)*)cc21

This test has as its target T1, Full-length S. cerevisiae Pex5 (S. cerevisiae, UniProt P35056 1-612).
T1 sequence: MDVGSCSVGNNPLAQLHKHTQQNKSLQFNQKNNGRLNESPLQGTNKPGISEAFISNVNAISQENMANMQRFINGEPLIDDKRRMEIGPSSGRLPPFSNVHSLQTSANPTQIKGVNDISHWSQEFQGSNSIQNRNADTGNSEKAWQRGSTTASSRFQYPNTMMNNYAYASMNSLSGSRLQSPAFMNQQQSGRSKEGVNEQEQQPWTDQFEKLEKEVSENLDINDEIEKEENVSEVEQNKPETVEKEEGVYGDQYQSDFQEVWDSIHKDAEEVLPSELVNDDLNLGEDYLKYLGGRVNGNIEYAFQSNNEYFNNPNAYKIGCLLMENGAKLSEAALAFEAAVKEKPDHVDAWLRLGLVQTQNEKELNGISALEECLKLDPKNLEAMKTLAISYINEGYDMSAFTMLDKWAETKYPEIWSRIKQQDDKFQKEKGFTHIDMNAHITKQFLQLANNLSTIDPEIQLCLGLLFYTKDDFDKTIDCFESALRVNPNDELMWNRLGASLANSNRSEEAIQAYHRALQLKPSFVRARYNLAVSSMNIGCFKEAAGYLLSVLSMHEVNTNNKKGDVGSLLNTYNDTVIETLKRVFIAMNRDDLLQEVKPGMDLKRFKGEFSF
Nature of the test: fluorescence polarisation.
{FITC}-YNENKRKAKL [Cat2 peptide (FITC-YNENKRKAKL)] returned a dissociation constant (Kd) of 49.9 ± 4.1 nM.

Take {FITC}-YKSSRNKSKL [Pcs60 peptide (FITC-YKSSRNKSKL)]: the equilibrium dissociation constant (Kd) was 455 ± 43.8 nM.

Consider {FITC}-YARVKRSSRL [Lys1 peptide (FITC-YARVKRSSRL)], for which the Kd came to 29.3 ± 3.65 nM.

In turn, {FITC}-GMDELYKSKL [mCherry-SKL peptide (FITC-GMDELYKSKL)] displayed a Kd of 9840 nM.
